Assay: label from the status in PepcDB records
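Also: failed if final PepcDB status was selected cloned or expressed and not failed if soluble or beyond.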

Row | Sequence | protein production
1 | LICLLSSLLSVQAAPGPHPHWSVGFHEMSFLDPLDRQPMRAIAFYPSTGIEHGSQLEGYQIAASRDAKIAIGRFPMLMLSHGNTGTPLALHDLATSLARKGFVVVAVIHPGDNSKDHSRLGTLSNLYGRPIQISEAITATLGDPMLSPFVNADQVGVIGYSAGGETALILSGATPDLDRLRRYCQERPNDRDACNTQGELIVDRDDLQPVADPRVHALMLLAPLSLKFGRQTLAGVHVPVLLYSGDGDQLVALDKNAAALARKLPVAPDFKLLAGAGHFVFMAPCSAQQMAAMPALCTDADGVDREDIHRNLILEAGNFFA | failed
2 | MNPKHSCTNFGADIPVNSQLIVTTSELRQKLKEKNKFILVDNRTWDEHIGKVSGYTYYDKKGRIPGALYGHSGSDSVSLEEYRNIDNTMRNKYEILEMWDKENIDVNKQLIFMCGSGWRAAEVLTYANVIGVENTSLYSDGWMGWSLDNSNLIEVGEHKLEHHHHHH | failed
3 | MSSLMMHCLIHVQELMNVKGIVVDELTGRSGPDHAKSLDPRTSLLRLITRPLGRVPPRESLDHFTRPPGRVSSPLPPSPSLDYILDVELQSLLHSALNQTLEHKEEKKTPAIHSTSHSTTLVEYSS | failed
4 | MALKELTAKEFESYSGNYDLQSFMQTPEMAKLLKKRGYDITYMGYQIDGKMEIISIVYTIPMTGGLHMEVNSGPAHSNSKYLKHFYKELQNYAKSQGALELLIKPYDTYQEFTGEGKPKGAPNTYLIDDLTSIGYHHDGLHIGYPGGEPDWHYVKNLEGITPQNLLKSFSKKGRPLVKKAMSFGIKIRVLKREELHIFKDITSSTSDRRDYMDKSLDYYQDFYDSFGDKAEFVIATLNFREYDHNLQLNAKKLEEQITVLDNRHQNNTDSAKYHRQRTELVNQLASLDKRRKEVEPFIQKFGNQDVVLAGSLFIYSPKETVYLFSGSYTEFNKFYAPAVLQEYVMQEALKRQSTFYNFLGIQGNFDGSDGVLRFKQNFNGYIVRKMGTFRYYPNPLKYKSIQLLKKILRRT | failed
5 | MQISIKTVKGKSINLEVADSSDTIDLKINGEPTRQLVLRLGPAVLMRIFVSTIKEKTFILEVKGSDTIKKLKSMIHDQGGPPVDQQDLNHLGTKLKNNATISDYNIKPDANLVIMQNGCIC | failed
6 | MEIKLFCVFIVFIILFSPFVIALSYPDVNYTAENGIIFVQNVTTGEKKPLYLHGVSWFGFELKDHVVYGLDKRNWKDILKDVKRLGFNAIRLPFCSESIRPDTRPSPERINYELNPDLKNLTSLEIMEKIIEYANSIGLYILLDYHRIGCEEIEPLWYTENYSEEQYIKDWIFLAKRFGKYPNVIGADIKNEPHGEAGWGTGDERDFRLFAEKVGREILKVAPHWLIFVEGTQYTHVPNIDEIIEKKGWWTFWGENLMGVKDYPVRLPRGKVVYSPHVYGPSVYMMDYFKSPDFPNNMPIIWETHFGYLTDLNYTLVIGEWGGNYEGLDKVWQDAFVKWLIKKKIYNFFYWCLNPESGDTGGIFLDDWKTVNWEKMRVIYRLIKAANPEFEEPLYIILKTNATTSILGVGERIRIYWYTNGKVIDSNFAHSSEGEMNITVTKSMTLYIIVKKGNQTLRKELKLYVIGGNYGSNISTTQLVTPKKGGERISTSLKLAISLLFILLFVWYLLREKH | failed
7 | MTVAIPDLRVCANLTGKTLLICVGAAKCATSWLHDYLGSRPEVTVSPLKELHFFDSKFPEHALGDADGLALARLSFQLGQAGDAVANLRHRAIFQASLDRAQMIYDDNAYFGHFARLCGPQTRCFCDLTPSYSAIGAEGFAYMKRFCASQDIEVKILFLMRDPVRRFWSQLRHLQQMNPVNDVASKWRHALTAPALLARADYRGIVLALEQVFPSANLLCLFYESLFEGDDAIRRLCRFIGIPFAPAATGQRHNETTVRLPLSDDARDAFRHLLAPQYDFCRERFGRSIPGSWLA | failed
8 | MIDRNIVNLRLFRIYSKRYLKFDFVAAIVVFLVAIPLCLGIALASGAPLFSGILSGIIGGIVVGIFSGSQVSVSGPAAGMAAVVLAAISQLGDFNTFLLALTIAGLLQMIIGALRAGFVADYVPSNVVQGLLCSIGILLIIKQLPLAFTLSSDFDELKTHLLETTEGFTVSPLLALSQHINEGALIITTLSLAILIYFDITKNKILKEIPAPILVVLAGILLNELFIWTNSSLAQNSPQLVNIPDTNGFFQFFSHLEYPDWSAWTNPKVYLYALVICIVASLETLLNLKASERLDKKRRHSPTNQELVAQGLGNITSGLVGGIPVTSVIVRTSINIHAGSKTKFSAVLHGFFILFAVMLIPGALNKIPLSSLAAILIYTGYKLNKPAIYINIFSQGSDRFIPFIVTVISIIAFNLLAGILIGLAISLFYILKSNSQARIDIIKEIYPNGSTYRLMLPQQMTFLNKAALVAELDTLPRRSQLIIDARHSQYIDKEILDLFNELKEELAGSKQISVNFTGFQEHYKIHNYIDFITVTTYDVQTNLTPAQVLNILLEGNQRFLSDNRIHRSNQIDIKYTAKTQHPIAVVLACIDSRVPVETIFDMSFGDLFCVRIAGNVINDDILASIEYACNVVGAKLIMVLGHTRCGAIQSACDGIEKGHITQLLSKIKPAVNAEKETTTERNGKNQTFVNHVTELNVANTLQNIYKKSDILRTMIDSNEIGMVGAIYDVSSGKVSCKTYTEELSTLDGDENKLLAQKFETILLEAKAS | failed
9 | MPKLPLLLSFPLLFFASFAYADEDFVTCYSVLKFINANDGSRLHSHDVKYGSGSGQQSVTAVKNSDDINSHWQIFPALNAKCNRGDAIKCGDKIRLKHLTTGTFLHSHHFTAPLSKQHQEVSAFGSEAESDTGDDWTVICNGDEWLESEQFKLRHAVTGSYLSLSGQQFGRPIHGQREVVGTDSITGGSAWKVAEGIYIKHQQKDL | not failed
10 | MHKYRLVAKKGEGTFSEVLKAQCIKNGKYVAIKCMKNHFDSLDQVNNLREIQALRRLSPHANIIKLLEVLYDQPTGRLALVFELMDMNIYELIRGRRHYVAEERIKNYMYQLMKSMDHMHRNGIFHRDIKPENILIMDDCLKLADFGSCRGIYSKQPYTEYISTRWYRAPECLLTDGYYNYKMDMWGVGCVFFEIVSLFPLFPGTNELDQITKIHNILGTPPPDLLAKMKKRSAHMDFNFPPKEGSGVAKLIPHVNPECVDLIVKLLMYNPDERLSARQALRHPYFRDLREAEKRQKALLAPDVSNHFTAMEADKARQQQTVSSTGSDHEHPTSAGGDGGAGTGAVGTHDGSAAAAAAAAALPSISGARGHAGPEGGHDNDMG | not failed
11 | MESGHRFDAQTLHSFIQAVFRQMGSEEQEAKLVADHLIAANLAGHDSHGIGMIPSYVRSWSQGHLQINHHAKTVKEAGAAVTLDGDRAFGQVAAHEAMALGIEKAHQHGIAAVALHNSHHIGRIGYWAEQCAAAGFVSIHFVSVVGIPMVAPFHGRDSRFGTNPFCVVFPRKDNFPLLLDYATSAIAFGKTRVAWHKGVPVPPGCLIDVNGVPTTNPAVMQESPLGSLLTFAEHKGYALAAMCEILGGALSGGKTTHQETLQTSPDAILNCMTTIIINPELFGAPDCNAQTEAFAEWVKASPHDDDKPILLPGEWEVNTRRERQKQGIPLDAGSWQAICDAARQIGMPEETLQAFCQQLAS | not failed
12 | MAKWRLATATLRRQLQSSSPTISTFKNPTKALSAAAHQSTRSYSTTQTDDSRGKWLTLPPFSPTIDGTAVGKDLLSDGDSVKSSTDNSKTTALRWILRCRPDLPRTLVQKLFRLRQVRREMSMSVDGDELQRSQLKRVAAKESLNVGDRIYLPLSVDNDTPQTPPAKKESFQCSDEERKFVCSLVLYKDPAIIVLNKPHGLAVQGGSGIKTSIDELAASCLKFDKSESPRLVHRLDRDCSGLLVLARTQTAATVLHSIFREKTTGASAYGVKKNVKSLKRKYMALVIGCPPRQRGQISAPLRKVVVDDGKSERITVNDNGELVSTQHAITEYRVIESSPHGYTWLELRPLTGRKHQLRVHCAEVLGTPIVGDYKYGWQAHKAREPFVSSENNPTKQSSSPFGLDLDGGDVSSKQPHLHLHSKQIDLPNISQLLEKMQVSSDSDISDLDSLKFDAPLPSHMQLSFNLLKSRVETCDKN | failed
13 | MMAAREQRSFRQLSLLRQFEGQSLLCASMNIPGPIKCSESLNKTFQSIINLVKEDLRGRIIFEREVHQKTGWEYYCLSDLPVSELKTKMIAIETKISIGRLMDLDVLHLVNGIPQPISRQELGFPRRQCYICQNDAKVCSRSRKHSVIEMQEAIAKFIKINH | failed
14 | MVTSSQVMLMPAHDSAKPTGFGIMVTSLDLLRDHQKVIHTLWFIDDVVARELGGFDGFCRRERVLLLFVDSTNTTLSFTRNDMTCVPRQGGADSDHWLFKRHLALLLPLSFAQVYEGFISFYEEEDKHISWDIKSCSSSSHQ | failed
15 | MERLKLYFSYFKNKILKKYESKKAQSVIDTEEIKEEIWEADFSKKEKARFIEETGDGYQSLFEENLDGKHSYSLELKRKHLYAWALNPLFRYKDFVLDAEIELPVFTDNFFPEENTSAGYCAAGFVFRHISDKAFYSLLISDKGWIRLEAVVNSTPMPILGWTKPLTDIDSSKFKIKLICAGTSITVLVNNTWLGKFESDIVQAAGKIGFAGQNWETYPKVKFYLNEFKIISQPLLVENTDSAANNPDAISPEAYINLASTYYAMGQYVAAIYQIKQAWKLREPGIQDHILAGRIYFAQHLNEEAEKEFLHALDIEHDNYEIMAELAGLYYQSGNMKKLGDILKDIPNDEIEKSVLLCSLKGHFLNSQGKHEKSAAFYAKAFELKPDQGLLKYNEANELNLAGKTAEAVEAYTEAGKLFLASEEYNEMANVINALERIAPEDERTWALSGKFYYAVDNKWEAKLNFKKLCDAKTSDSTIWYLYGLLIHDEKPEEAVKFFKKACKLGPEHGLYHFRLAEALYLIGEDCSVPLSEAEALEPNNGWIFNLKALCAIDEDAFFDAQIEIEKARKMLPDEIVILENYVEIMRLQGRLKECAPLFDIEAGTADLAAERNRAEAFHIYANALFFDEQYDEADIWYQKALKLKPVDPVLLTDKAENSIKIGYLNDADGLLVKAMDIEPTERIYRLISLLAVKKGDHARAEVSLRQAIEEFGESEELLFDLTNLYIQTNRKEKAKETIKLLTNCEDQERLKELKALLKK | failed
16 | MGHHHHHHSHMSTSLTGKPGALPANLDDMKVAELKQELKLRSLPVSGTKTELIERLRAYQDQISPVPGAPKAPAA | failed
17 | MFSKLKKTWYADDFSYFIRNFGVFTLIFSTMTLIILQVMHSSLYTSVDDKLHGLSENPQAVIQLAINRATEEIKDLENARADASKVEIKPNVSSNTEVILFDKDFTQLLSGNRFLGLDKIKLEKKELGHIYQIQVFNSYGQEEIYRVILMETNISSVSTNIKYAAVLINTSQLEQASQKHEQLIVVVMASFWILSLLASLYLARVSVRPLLESMQKQQSFVENASHELRTPLAVLQNRLETLFRKPEATIMDVSESIASSLEEVRNMRFLTTSLLNLARRDDGIKPELAEVPTSFFNTTFTNYEMIASENNRVFRFENRIHRTIVTDQLLLKQLMTILFDNAVKYTEEDGEIDFLISATDRNLYLLVSDNGIGISTEDKKKIFDRFYRVDKARTRQKGGFGLGLSLAKQIVDALKGTVTVKDNKPKGTIFEVKIAIQTPSKKKK | failed
18 | MSLQLDEYLRQLAPSMTQWRRDFHLHAESGWLEFRTASKVADILDGLGYQLALGRDVIDADSRMGLPDEETLARAFERAREQGAPERWLPAFEGGFAGVVATLDTGRPGPTLAFRVDMDALDLNEQHDDSHRPHRDHFASCNAGMMHACGHDGHTAIGLGLAHVLKQYAAQLNGVIKLIFQPAEEGTRGARAMVAAGVVDDVDYFTAIHIGTGVPAGTVVCGGDNFMATTKFDVQFSGVAAHAGGKPEDGRNALLAAAQAALGLHAIPPHSAGASRVNVGVMQAGTGRNVVPSSALLKVETRGESEAINQYVFERAQHVVAGAAAMYEARYELRMMGAATASAPSPAWVDYLREQAARVPGVQQAVDRIAAPAGSEDATLMMARVQARGGLASYMIFGTELSAGHHNEKFDFDESVMAVAVETLARVALNFPWQRGVEGHHHHHH | not failed

— a protein production outcome set (Wang et al. 2014)
